We go through 1 molecule from patent US20180230219A1 (HELIX BIOPHARMA, published 2018).

What is called Kd is the constant that tells how readily two partners part at equilibrium. As a reminder, the koff is the rate constant with which the complex falls apart. A high value points to fast dissociation.

This assay has as its target T1, human VEGFR-2/Fc (R&D Systems) (human, UniProt P35968 20-764).
T1 construct: also called recombinant VEGFR2/Fc; VEGFR/Fc; not shown: Fc part of the bought fusion protein (captured by anti-human IgG-Fc in the ELISA)
Briefly: SPR, Biacore 3000, human VEGFR-2/Fc immobilized.

T1 sequence (P35968 20-764): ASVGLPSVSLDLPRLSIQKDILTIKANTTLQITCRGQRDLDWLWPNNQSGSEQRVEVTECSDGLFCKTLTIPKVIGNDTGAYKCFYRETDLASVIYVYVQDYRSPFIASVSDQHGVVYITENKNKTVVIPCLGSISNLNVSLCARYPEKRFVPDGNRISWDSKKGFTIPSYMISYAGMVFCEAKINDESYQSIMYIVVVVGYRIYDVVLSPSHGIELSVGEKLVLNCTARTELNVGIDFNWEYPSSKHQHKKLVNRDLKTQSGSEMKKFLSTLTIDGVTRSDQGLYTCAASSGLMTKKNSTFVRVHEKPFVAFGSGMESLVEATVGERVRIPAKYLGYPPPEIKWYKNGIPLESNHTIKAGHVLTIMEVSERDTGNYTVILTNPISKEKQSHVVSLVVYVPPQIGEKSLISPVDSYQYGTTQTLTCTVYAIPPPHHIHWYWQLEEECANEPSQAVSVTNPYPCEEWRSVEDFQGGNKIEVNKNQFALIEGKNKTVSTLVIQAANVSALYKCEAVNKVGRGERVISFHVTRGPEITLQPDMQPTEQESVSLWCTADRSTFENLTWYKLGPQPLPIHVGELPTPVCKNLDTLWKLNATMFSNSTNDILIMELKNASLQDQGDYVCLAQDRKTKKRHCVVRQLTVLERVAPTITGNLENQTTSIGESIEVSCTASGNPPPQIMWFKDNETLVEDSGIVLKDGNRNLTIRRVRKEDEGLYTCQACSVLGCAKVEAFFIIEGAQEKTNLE

B1: AB4 with linker 2; VR2-38 (SEQ ID NO:27) (VHH)
VHH: QVKLEESGGGLVQAGGSLRLSCAASGGTASSYAMGWFRQAPGKEREFVAAISRSGGNTDYVDSAKGRFTISRDDAKNTVSLQMNSLRLEDTAVYYCAARYAGTWPNDAGTVYWLPPNYNYWGQGTQVTVSS
With B1, the Kd amounted to 80 nM and the koff is 0.015 s⁻¹.
